Our source for the protein stability index values is the supplement of paper PMC10724198.

Series [1] relates to Saccharomyces cerevisiae. The experiment in a line: protein stability index of tFT-peptide fusion in wild type (PSI (0-1 scale)); higher = more stable (slower turnover). The settings on record: genetic background: wild type.
Series [2] concerns Saccharomyces cerevisiae. The experiment in a line: protein stability index of tFT-peptide fusion in deletion strain of DOA10 (PSI (0-1 scale)); higher = more stable (slower turnover). Here is the method:
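MPS profiling in S. cerevisiae of two library types built from selected 12-aa C-degron peptides (IN1, IN2, LN1, LN3, VN2, R1-R5, W1-W3, Atg1 and Rpa12 C-termini): saturation mutagenesis libraries and C-terminal +1 capping libraries (13 aa). Each peptide is fused to the C-terminus of a sfGFP-mCherry timer, after a GGGS linker. Cells are FACS-sorted into 8 mCherry/sfGFP bins and sequenced. PSI runs from 0 (unstable) to 1 (stable), measured once in wild type and in the das1Δ or doa10Δ background.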
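Wherever protein stability index of tFT-peptide fusion in deletion strain of DOA10 is given: PSI per variant is the weighted mean of its sequencing read distribution over the sorted stability bins, counting only variants with over 10 reads summed across bins.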
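Wherever protein stability index of tFT-peptide fusion in wild type is given: PSI derived as read-weighted mean over the 8 sorting bins, only variants exceeding 10 total reads kept, mCherry placed adjacent to the peptide and sfGFP distal.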

On to AIVLPMCPLLLR, for which the results for the protein stability index in series [1] and in series [2] were 0.229 and 0.623, respectively.

For the sequence ALYMCSVGCWFR, the protein stability index in series [1] was 0.351; in series [2] it was 0.638.

Regarding ANTLPMCPLLLR, the values for the protein stability index in series [1] and in series [2] were 0.442 and 0.649, respectively.

In the case of CEVSLPILLFFR, the protein stability index in series [1] stood at 0.066; in series [2] it was 0.635.

On to CLPSLPILLFFR, for which the protein stability index was 0.0469 in series [1] and 0.632 in series [2].

Consider CLTSLPILLFFR, for which the protein stability index is 0.0745 in series [1] and 0.636 in series [2].

On to CLVFLPILLFFR, for which the protein stability index in series [1] was found to be 0.0802; in series [2] it was 0.416.

Take CLVKLPILLFFR: the protein stability index in series [1] came to 0.06; in series [2], 0.6.

Consider CLVSFPILLFFR, for which the protein stability index was 0.0594 in series [1] and 0.583 in series [2].

With CLVSLMILLFFR, the protein stability index in series [1] is 0.256; in series [2] it was 0.398.

With CLVSLPELLFFR, the protein stability index in series [1] turned out to be 0.176; in series [2] it was 0.692.

In the case of CLVSLPIHLFFR, the protein stability index in series [1] amounted to 0.0666; in series [2], 0.669.

CLVSLPILFFFR: the figures for the protein stability index in series [1] and in series [2] were 0.499 and 0.59, respectively.

Turning to CLVSLPILHFFR, the protein stability index in series [1] was found to be 0.628; in series [2] it was 0.667.

Regarding CLVSLPILLFCR, the protein stability index in series [1] stood at 0.0631; in series [2], 0.25.

CLVSLPILLFFM: the protein stability index in series [1] came out at 0.299; in series [2], 0.479.

For the sequence CLVSLPILLHFR, the protein stability index turned out to be 0.286 in series [1] and 0.655 in series [2].

With CLVSLPILLKFR, the protein stability index turned out to be 0.178 in series [1] and 0.652 in series [2].

As to CLVSLPILLSFR, the protein stability index in series [1] amounted to 0.187; in series [2], 0.631.

Regarding CLVSLPILLVFR, the figures for the protein stability index in series [1] and in series [2] were 0.0722 and 0.527, respectively.

Regarding CLVSLPILPFFR, the results for the protein stability index in series [1] and in series [2] were 0.0842 and 0.679, respectively.

Consider CLVSLPILVFFR, for which the protein stability index was determined as 0.0876 in series [1] and 0.512 in series [2].

In the case of CLVSLPILWFFR, the protein stability index in series [1] turned out to be 0.566; in series [2] it was 0.61.

Regarding CLVSLPIMLFFR, the protein stability index worked out at 0.0325 in series [1] and 0.607 in series [2].

CLVSLPIPLFFR: the protein stability index in series [1] was 0.0774; in series [2] it was 0.643.

On to CLVSLPIVLFFR, for which the results for the protein stability index in series [1] and in series [2] were 0.0839 and 0.581, respectively.

Regarding CLVSLPKLLFFR, the protein stability index amounted to 0.0835 in series [1] and 0.662 in series [2].

For CLVSLPSLLFFR, the protein stability index was 0.0935 in series [1] and 0.667 in series [2].

With CLVSSPILLFFR, the protein stability index was determined as 0.272 in series [1] and 0.645 in series [2].

With CPVSLPILLFFR, the figures for the protein stability index in series [1] and in series [2] were 0.0943 and 0.602, respectively.

Consider CSLRVLLPLYFR, for which the results for the protein stability index in series [1] and in series [2] were 0.0975 and 0.622, respectively.

With DLYMCSVGCWFR, the protein stability index in series [1] turned out to be 0.453; in series [2] it was 0.697.

As to ELVSLPILLFFR, the protein stability index was 0.0794 in series [1] and 0.633 in series [2].

With FSLRVLLPLYFR, the values for the protein stability index in series [1] and in series [2] were 0.268 and 0.608, respectively.

GAYMCSVGCWFR: the results for the protein stability index in series [1] and in series [2] were 0.427 and 0.686, respectively.

For the sequence GDYMCSVGCWFR, the protein stability index was found to be 0.462 in series [1] and 0.692 in series [2].

For GLIMCSVGCWFR, the protein stability index was determined as 0.197 in series [1] and 0.39 in series [2].

Regarding GLLMCSVGCWFR, the protein stability index in series [1] is 0.22; in series [2], 0.409.

For the sequence GLMMCSVGCWFR, the protein stability index in series [1] is 0.237; in series [2], 0.506.

With GLPMCSVGCWFR, the protein stability index is 0.267 in series [1] and 0.699 in series [2].

As to GLWMCSVGCWFR, the protein stability index in series [1] came to 0.315; in series [2], 0.54.

As to GLYMCAVGCWFR, the protein stability index in series [1] is 0.279; in series [2] it was 0.54.

Consider GLYMCCVGCWFR, for which the protein stability index in series [1] was determined as 0.303; in series [2], 0.504.

On to GLYMCSCGCWFR, for which the figures for the protein stability index in series [1] and in series [2] were 0.46 and 0.674, respectively.

As for GLYMCSNGCWFR, the values for the protein stability index in series [1] and in series [2] were 0.397 and 0.703, respectively.

As for GLYMCSPGCWFR, the protein stability index turned out to be 0.246 in series [1] and 0.679 in series [2].

As to GLYMCSVGAWFR, the values for the protein stability index in series [1] and in series [2] were 0.451 and 0.667, respectively.

Consider GLYMCSVGCFFR, for which the protein stability index in series [1] worked out at 0.408; in series [2], 0.632.

For GLYMCSVGCIFR, the results for the protein stability index in series [1] and in series [2] were 0.587 and 0.637, respectively.

GLYMCSVGCSFR: the protein stability index in series [1] worked out at 0.621; in series [2], 0.651.

GLYMCSVGCTFR: the protein stability index in series [1] came out at 0.609; in series [2], 0.64.

Turning to GLYMCSVGCWDR, the protein stability index is 0.627 in series [1] and 0.665 in series [2].

As to GLYMCSVGCWFY, the protein stability index in series [1] is 0.398; in series [2] it was 0.52.

For the sequence GLYMCSVICWFR, the figures for the protein stability index in series [1] and in series [2] were 0.231 and 0.314, respectively.

For the sequence GLYMCSVLCWFR, the values for the protein stability index in series [1] and in series [2] were 0.274 and 0.369, respectively.

Regarding GLYMCSVSCWFR, the protein stability index in series [1] is 0.338; in series [2], 0.446.

As to GLYMISVGCWFR, the protein stability index is 0.17 in series [1] and 0.341 in series [2].

Regarding GLYQCSVGCWFR, the protein stability index in series [1] was determined as 0.434; in series [2], 0.676.

With GLYSCSVGCWFR, the protein stability index in series [1] was 0.451; in series [2], 0.676.

Regarding GLYYCSVGCWFR, the figures for the protein stability index in series [1] and in series [2] were 0.249 and 0.605, respectively.

Turning to GMYMCSVGCWFR, the protein stability index in series [1] amounted to 0.271; in series [2], 0.713.

GNYMCSVGCWFR: the protein stability index in series [1] is 0.405; in series [2] it was 0.699.

As for MITLPMCPLLLR, the protein stability index in series [1] was 0.302; in series [2] it was 0.626.

Take MSLRVLLPLYFR: the protein stability index was found to be 0.314 in series [1] and 0.622 in series [2].

On to QLVSLPILLFFR, for which the protein stability index in series [1] worked out at 0.0846; in series [2] it was 0.647.

Take QSLRVLLPLYFR: the protein stability index in series [1] is 0.283; in series [2] it was 0.659.

On to RCTRLDAIYFRI, for which the protein stability index in series [1] is 0.46; in series [2], 0.674.
